Sequences and labels used below:
T1: human GIP receptor (human) (UniProt P48546)
T1 sequence (looked up): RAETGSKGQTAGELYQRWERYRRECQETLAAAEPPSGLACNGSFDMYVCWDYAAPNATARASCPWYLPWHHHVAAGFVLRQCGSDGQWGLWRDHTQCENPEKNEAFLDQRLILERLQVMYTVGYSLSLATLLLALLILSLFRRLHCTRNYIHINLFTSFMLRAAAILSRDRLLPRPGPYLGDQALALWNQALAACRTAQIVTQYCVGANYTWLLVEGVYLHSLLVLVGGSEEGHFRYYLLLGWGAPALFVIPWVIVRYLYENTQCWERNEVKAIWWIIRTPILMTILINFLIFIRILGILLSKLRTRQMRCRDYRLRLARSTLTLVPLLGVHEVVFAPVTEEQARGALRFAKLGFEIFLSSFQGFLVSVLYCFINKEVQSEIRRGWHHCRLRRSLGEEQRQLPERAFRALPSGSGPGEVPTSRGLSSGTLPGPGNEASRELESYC

B1: Example 790 (peptide)
chain: YXQGTFTSDFSQXLDKKAQXAFIEYLLEXGESSGEPPPSGE
modifications: synthetic construct; SITE 2: note = 2-Aminoisobutyric Acid; SITE 13: note = alpha-methyl-leucine; SITE 17: note = Lysine is chemically modified through conjugation of the epsilon-amino group of the Lysine side chain with (2-[2-(2-Amino-ethoxy)-ethoxy]-acetyl)-(gamma-Glu)-CO-(CH2) 16-CO2H; SITE 20: n
B2: Example 751 (peptide)
chain: YXQGTXTSDXXIXLDXKAQXEFIEXLVEGGPSSGAPPPSGSE
modifications: synthetic construct; SITE 2: note = 2-Aminoisobutyric Acid; SITE 6: note = alpha-methyl-2-fluoro-L-phenylalanine; SITE 10: note = 3-(4-Pyridyl)-L-alanine; SITE 11: note = alpha-methyl-L-serine; SITE 13: note = alpha-methyl-leucine; SITE 16: note = L-ornithine; SITE 17: note = Lysine is chemically mo
B3: Example 752 (peptide)
chain: B2 chain with A35E
modifications: synthetic construct; SITE 2: note = 2-Aminoisobutyric Acid; SITE 6: note = alpha-methyl-2-fluoro-L-phenylalanine; SITE 10: note = 3-(4-Pyridyl)-L-alanine; SITE 11: note = alpha-methyl-L-serine; SITE 13: note = alpha-methyl-leucine; SITE 16: note = L-ornithine; SITE 17: note = Lysine is chemically mo
B4: Example 772 (peptide)
chain: YXQGTFTSDFSQXLDKKAQXAFIEYLLAGGPSSGAPPPEGS
modifications: synthetic construct; SITE 2: note = 2-Aminoisobutyric Acid; SITE 13: note = alpha-methyl-leucine; SITE 17: note = Lysine is chemically modified through conjugation of the epsilon-amino group of the Lysine side chain with (2-[2-(2-Amino-ethoxy)-ethoxy]-acetyl)-(gamma-Glu)-CO-(CH2) 16-CO2H; SITE 20: n
B5: Example 794 (peptide)
chain: B4 chain with Q12R, L27I, A28E, P31E, E39S
modifications: synthetic construct; SITE 2: note = 2-Aminoisobutyric Acid; SITE 13: note = alpha-methyl-leucine; SITE 17: note = Lysine is chemically modified through conjugation of the epsilon-amino group of the Lysine side chain with (2-[2-(2-Amino-ethoxy)-ethoxy]-acetyl)-(gamma-Glu)-CO-(CH2) 16-CO2H; SITE 20: n
B6: Example 774 (peptide)
chain: B4 chain with Y25W, A28E
modifications: synthetic construct; SITE 2: note = 2-Aminoisobutyric Acid; SITE 13: note = alpha-methyl-leucine; SITE 17: note = Lysine is chemically modified through conjugation of the epsilon-amino group of the Lysine side chain with (2-[2-(2-Amino-ethoxy)-ethoxy]-acetyl)-(gamma-Glu)-CO-(CH2) 16-CO2H; SITE 20: n
B7: Example 788 (peptide)
chain: B1 chain with E41S
modifications: synthetic construct; SITE 2: note = 2-Aminoisobutyric Acid; SITE 13: note = alpha-methyl-leucine; SITE 17: note = Lysine is chemically modified through conjugation of the epsilon-amino group of the Lysine side chain with (2-[2-(2-Amino-ethoxy)-ethoxy]-acetyl)-(gamma-Glu)-CO-(CH2) 16-CO2H; SITE 20: n
B8: Example 773 (peptide)
chain: B4 chain with A35E, E39S
modifications: synthetic construct; SITE 2: note = 2-Aminoisobutyric Acid; SITE 13: note = alpha-methyl-leucine; SITE 17: note = Lysine is chemically modified through conjugation of the epsilon-amino group of the Lysine side chain with (2-[2-(2-Amino-ethoxy)-ethoxy]-acetyl)-(gamma-Glu)-CO-(CH2) 16-CO2H; SITE 20: n
B9: Example 763 (peptide)
chain: YXQGTXTSDXXIXLDXKAQXEFIEXLIEGGPSSGEPPPEGTGE
modifications: synthetic construct; SITE 2: note = 2-Aminoisobutyric Acid; SITE 6: note = alpha-methyl-2-fluoro-L-phenylalanine; SITE 10: note = 3-(4-Pyridyl)-L-alanine; SITE 11: note = alpha-methyl-L-serine; SITE 13: note = alpha-methyl-leucine; SITE 16: note = L-ornithine; SITE 17: note = Lysine is chemically mo
B10: Example 72 (peptide)
chain: YXQGTFTSDFSXXLDKKAQXAFIEYLLEAGPSSGAPPPSEG
modifications: not fully specified; synthetic construct; SITE 2: note = 2-Aminoisobutyric Acid; SITE 12: note = L-ornithine; SITE 13: note = alpha-methyl-leucine; SITE 17: note = Lysine is chemically modified through conjugation of the epsilon-amino group of the Lysine side chain with (2-[2-(2-Amino-ethoxy)-ethoxy]-acetyl)2-(gamma-Glu)
B11: Example 779 (peptide)
chain: B10 chain with X12Q, G34X, E40G, G41T
modifications: synthetic construct; SITE 2: note = 2-Aminoisobutyric Acid; SITE 13: note = alpha-methyl-leucine; SITE 17: note = Lysine is chemically modified through conjugation of the epsilon-amino group of the Lysine side chain with (2-[2-(2-Amino-ethoxy)-ethoxy]-acetyl)-(gamma-Glu)-CO-(CH2) 16-CO2H; SITE 20: n

Where a chain is given by its changes, count along the chain named.

Sequence of human glucagon receptor (human) (P47871 26-477): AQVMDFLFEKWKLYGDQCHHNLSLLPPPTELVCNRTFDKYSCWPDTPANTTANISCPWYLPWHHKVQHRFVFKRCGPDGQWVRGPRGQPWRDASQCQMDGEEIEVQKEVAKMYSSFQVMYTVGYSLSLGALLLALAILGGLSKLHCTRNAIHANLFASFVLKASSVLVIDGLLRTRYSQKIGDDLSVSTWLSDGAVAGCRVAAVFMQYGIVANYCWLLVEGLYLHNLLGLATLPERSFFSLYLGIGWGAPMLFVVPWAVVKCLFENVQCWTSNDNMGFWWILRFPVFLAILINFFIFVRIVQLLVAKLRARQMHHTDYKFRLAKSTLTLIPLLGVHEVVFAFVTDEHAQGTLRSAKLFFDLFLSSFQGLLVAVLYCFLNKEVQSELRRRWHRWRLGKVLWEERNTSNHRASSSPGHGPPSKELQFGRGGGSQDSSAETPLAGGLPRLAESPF

The target in one assay is hGLP-1R (Homo sapiens, UniProt P43220). As to the kind of experiment: cell-based or functional assay.
Sequence of hGLP-1R (P43220 24-463): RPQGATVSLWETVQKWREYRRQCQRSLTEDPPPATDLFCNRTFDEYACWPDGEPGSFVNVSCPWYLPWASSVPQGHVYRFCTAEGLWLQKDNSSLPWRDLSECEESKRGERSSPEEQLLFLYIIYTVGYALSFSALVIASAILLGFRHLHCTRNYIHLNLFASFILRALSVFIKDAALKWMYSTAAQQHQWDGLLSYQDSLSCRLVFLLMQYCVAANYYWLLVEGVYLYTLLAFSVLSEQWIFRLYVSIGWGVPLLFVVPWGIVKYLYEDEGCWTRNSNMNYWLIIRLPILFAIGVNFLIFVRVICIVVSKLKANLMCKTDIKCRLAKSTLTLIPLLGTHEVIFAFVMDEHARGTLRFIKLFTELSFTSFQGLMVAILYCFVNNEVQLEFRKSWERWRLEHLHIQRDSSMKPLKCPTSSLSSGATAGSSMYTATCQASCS
On to B1, for which the Relative cAMP EC50 came out at 3.19 nM and the cAMP Rel EC50, nM (1% HSA) stood at 858 nM.
The matching figures for B2: 0.302 nM and 32.3 nM.
The matching figures for B3: 0.274 nM and 44 nM.
The matching figures for B4: 1.38 nM and 206 nM.
The molecule B5 yielded a Relative cAMP EC50 of 1.26 nM and a cAMP Rel EC50, nM (1% HSA) of 233 nM.
As to B6, the Relative cAMP EC50 turned out to be 1.89 nM and the cAMP Rel EC50, nM (1% HSA) was found to be 404 nM.
For B7, in that order: 2.5 nM and 528 nM.
For B8, in that order: 1.97 nM and 241 nM.
The matching figures for B9: 0.302 nM and 42.5 nM.
Take B10: the Relative cAMP EC50 came to 1.86 nM and the cAMP Rel EC50, nM (in the presence of 1% HSA) turned out to be 683 nM.
Take B11: the Relative cAMP EC50 amounted to 0.949 nM and the cAMP Rel EC50, nM (1% HSA) turned out to be 175 nM.

Another assay addresses human glucagon receptor (human) (UniProt P47871). As to the kind of experiment: cell-based or functional assay.
Consider B1, for which the Relative cAMP EC50 worked out at 3.87 nM and the cAMP Rel EC50, nM (1% HSA) stood at 1200 nM.
The matching figures for B2: 1.9 nM and 267 nM.
For B3, in that order: 1.9 nM and 228 nM.
The matching figures for B4: 15.9 nM and 1880 nM.
Consider B5, for which the Relative cAMP EC50 stood at 1.21 nM and the cAMP Rel EC50, nM (1% HSA) worked out at 297 nM.
For B6, in that order: 13.7 nM and 2330 nM.
B7 had a Relative cAMP EC50 of 3.36 nM and a cAMP Rel EC50, nM (1% HSA) of 1420 nM.
For B8, in that order: 15.3 nM and 2260 nM.
The matching figures for B9: 1.57 nM and 222 nM.
Consider B10, for which the Relative cAMP EC50 came to 5.48 nM and the cAMP Rel EC50, nM (in the presence of 1% HSA) amounted to 1910 nM.
As for B11, the Relative cAMP EC50 was 4.58 nM and the cAMP Rel EC50, nM (1% HSA) stood at 1020 nM.

The target in a further assay is T1, human GIP receptor (human). As to the kind of experiment: cell-based or functional assay.
Molecule B1 registered a Relative cAMP EC50 of 0.131 nM and a cAMP Rel EC50, nM (1% HSA) of 34.1 nM.
The matching figures for B2: 0.00759 nM and 1.27 nM.
B3 yielded a Relative cAMP EC50 of 0.00689 nM and a cAMP Rel EC50, nM (1% HSA) of 1.74 nM.
The matching figures for B4: 0.115 nM and 21.6 nM.
The matching figures for B5: 0.468 nM and 68.4 nM.
In the case of B6, the Relative cAMP EC50 was determined as 0.128 nM and the cAMP Rel EC50, nM (1% HSA) is 32.8 nM.
The molecule B7 came in with a Relative cAMP EC50 of 0.0923 nM and a cAMP Rel EC50, nM (1% HSA) of 20.7 nM.
For B8, in that order: 0.0974 nM and 26.3 nM.
The molecule B9 yielded a Relative cAMP EC50 of 0.00719 nM and a cAMP Rel EC50, nM (1% HSA) of 1.16 nM.
As to B10, the Relative cAMP EC50 came out at 0.202 nM and the cAMP Rel EC50, nM (in the presence of 1% HSA) was found to be 56.7 nM.
The molecule B11 came in with a Relative cAMP EC50 of 0.112 nM and a cAMP Rel EC50, nM (1% HSA) of 19.3 nM.

Values taken from patent publication US20240270821A1, “GIP/GLP1/GCG TRI-RECEPTOR AGONISTS AND USES THEREOF” (priority 2023, published 2024).
